# In patent US20070293656A1, “COLLAGEN BINDING PEPTIDES” (Epix Pharmaceuticals, Inc., priority 2005, published 2007):
# Bridge positions count the residues as written; N and C are the ends. Ends that are not written are not given here.
# Molecular target: T1, human collagen type I (acid soluble, extracted from placenta, Sigma C7774) (human, UniProt P02452 162-1218; P08123 80-1119)
# T1 construct: gelled and dried as a fibril film in the assay; also called dried human collagen; h-Collagen
# Test: dried collagen assay
# Experimental: An additional 90 μL is reserved in a HPLC glass vial as a measure of the total concentration.
# T1 sequence (P02452 162-1218 limits assumed, chain 1 of 2): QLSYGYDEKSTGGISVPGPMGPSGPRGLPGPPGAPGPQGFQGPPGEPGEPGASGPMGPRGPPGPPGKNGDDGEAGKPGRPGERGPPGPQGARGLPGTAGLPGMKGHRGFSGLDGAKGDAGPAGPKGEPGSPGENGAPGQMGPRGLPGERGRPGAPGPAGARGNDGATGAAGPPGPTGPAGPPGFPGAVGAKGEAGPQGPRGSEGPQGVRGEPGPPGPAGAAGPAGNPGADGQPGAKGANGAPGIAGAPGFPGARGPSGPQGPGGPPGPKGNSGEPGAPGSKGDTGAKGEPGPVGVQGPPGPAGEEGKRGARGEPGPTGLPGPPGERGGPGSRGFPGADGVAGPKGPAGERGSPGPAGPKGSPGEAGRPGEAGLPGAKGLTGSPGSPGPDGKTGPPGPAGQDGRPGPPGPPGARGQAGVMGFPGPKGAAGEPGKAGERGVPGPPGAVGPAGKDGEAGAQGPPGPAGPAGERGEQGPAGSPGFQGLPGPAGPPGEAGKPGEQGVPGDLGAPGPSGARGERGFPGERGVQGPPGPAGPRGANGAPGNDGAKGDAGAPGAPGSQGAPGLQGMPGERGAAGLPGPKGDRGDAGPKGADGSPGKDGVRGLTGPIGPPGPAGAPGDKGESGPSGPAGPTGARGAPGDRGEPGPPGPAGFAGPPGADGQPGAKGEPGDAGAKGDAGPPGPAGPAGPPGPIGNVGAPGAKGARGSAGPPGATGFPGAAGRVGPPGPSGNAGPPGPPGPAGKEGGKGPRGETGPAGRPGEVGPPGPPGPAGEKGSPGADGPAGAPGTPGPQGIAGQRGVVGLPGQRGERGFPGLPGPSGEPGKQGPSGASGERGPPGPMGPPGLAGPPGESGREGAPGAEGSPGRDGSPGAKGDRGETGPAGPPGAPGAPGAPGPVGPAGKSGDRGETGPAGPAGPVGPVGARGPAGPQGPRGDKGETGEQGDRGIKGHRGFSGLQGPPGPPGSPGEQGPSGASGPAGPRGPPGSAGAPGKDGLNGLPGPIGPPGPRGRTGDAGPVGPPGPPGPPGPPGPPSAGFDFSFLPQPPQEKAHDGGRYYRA
# T1 sequence (P08123 80-1119 limits assumed, chain 2 of 2): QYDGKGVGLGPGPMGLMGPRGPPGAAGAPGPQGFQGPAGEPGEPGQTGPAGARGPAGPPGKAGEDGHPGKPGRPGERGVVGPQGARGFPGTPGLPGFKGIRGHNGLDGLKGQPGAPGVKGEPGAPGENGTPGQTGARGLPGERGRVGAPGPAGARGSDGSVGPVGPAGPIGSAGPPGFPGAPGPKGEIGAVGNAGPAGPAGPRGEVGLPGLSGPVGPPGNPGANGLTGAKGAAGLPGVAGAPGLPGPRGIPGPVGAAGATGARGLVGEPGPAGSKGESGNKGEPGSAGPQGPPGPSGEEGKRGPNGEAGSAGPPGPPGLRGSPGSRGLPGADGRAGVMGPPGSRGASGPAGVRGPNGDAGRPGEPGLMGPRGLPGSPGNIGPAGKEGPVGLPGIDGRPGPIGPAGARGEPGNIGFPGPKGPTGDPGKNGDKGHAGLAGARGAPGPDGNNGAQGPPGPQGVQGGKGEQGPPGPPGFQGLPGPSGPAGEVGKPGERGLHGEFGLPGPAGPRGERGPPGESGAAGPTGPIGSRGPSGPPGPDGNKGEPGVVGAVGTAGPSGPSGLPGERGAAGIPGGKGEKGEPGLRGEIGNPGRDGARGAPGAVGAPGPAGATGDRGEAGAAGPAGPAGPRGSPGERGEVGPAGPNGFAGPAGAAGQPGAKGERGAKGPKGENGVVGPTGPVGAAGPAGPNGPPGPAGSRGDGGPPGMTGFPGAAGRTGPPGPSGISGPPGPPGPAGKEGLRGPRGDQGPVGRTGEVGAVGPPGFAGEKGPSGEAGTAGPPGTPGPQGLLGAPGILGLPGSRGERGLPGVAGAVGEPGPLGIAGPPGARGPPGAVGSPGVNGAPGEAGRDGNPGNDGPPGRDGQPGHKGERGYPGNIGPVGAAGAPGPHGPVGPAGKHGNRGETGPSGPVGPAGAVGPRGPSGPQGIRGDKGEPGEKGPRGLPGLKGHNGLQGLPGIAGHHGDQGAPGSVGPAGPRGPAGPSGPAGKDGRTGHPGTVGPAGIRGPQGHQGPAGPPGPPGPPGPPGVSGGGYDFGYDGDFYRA
row,Binder,% bound [%]
1,FWTCMRDQVGEWHCGTE (disulfide 4-14 (inferred)) [SEQ ID NO: 88],1
2,KWHCELDSHMEWSCSGH (disulfide 4-14 (inferred)) [SEQ ID NO: 89],1
3,TWACGWTTTGWDNCRWI (disulfide 4-14 (inferred)) [SEQ ID NO: 90],34
4,TWACGWTTTGWDNCRWI (disulfide 4-14 (inferred)) [SEQ ID NO: 92],34
5,WWACQKGQHDWEKCHWL (disulfide 4-14 (inferred)) [SEQ ID NO: 93],5
6,WTDCQWMDEQLWTCRWD (disulfide 4-14 (inferred)) [SEQ ID NO: 94],21
7,WTDCQWMDEQIWTCRWD (disulfide 4-14 (inferred)) [SEQ ID NO: 95],5
8,WQLCSSRNDHVAYCFVS (disulfide 4-14 (inferred)) [SEQ ID NO: 96],17
9,WISCESSEEKISYCWRA (disulfide 4-14 (inferred)) [SEQ ID NO: 97],13
10,AKKCWYNDGGHLRCRTL (disulfide 4-14 (inferred)) [SEQ ID NO: 99],3
11,WWGCRQGTGEHWSHCMWF (disulfide 4-15 (inferred)) [SEQ ID NO: 100],67
12,WWTCHMTWSGQWDSCKWH (disulfide 4-15 (inferred)) [SEQ ID NO: 101],56
13,WAYCMTDPSGKYRYCQNW (disulfide 4-15 (inferred)) [SEQ ID NO: 102],31
14,YPACDDQTHLWNLACWPA (disulfide 4-15 (inferred)) [SEQ ID NO: 103],2
15,DWTCSGDEYTWHCNYE (disulfide 4-13 (inferred)) [SEQ ID NO: 17],78
16,DWTCRGDEYTWHCNYE (disulfide 4-13 (inferred)) [SEQ ID NO: 14],83
17,DWTCYGDEYTWHCNYE (disulfide 4-13 (inferred)) [SEQ ID NO: 15],83
18,DWTCSGDEYYWHCNYE (disulfide 4-13 (inferred)) [SEQ ID NO: 16],83
19,DWTCSGDEYTWYCNYE (disulfide 4-13 (inferred)) [SEQ ID NO: 18],78
20,DWTCSGDEYRWHCNYE (disulfide 4-13 (inferred)) [SEQ ID NO: 19],70
21,TWMCVDPPLWRCWVQ (disulfide 4-12 (inferred)) [SEQ ID NO: 4],45

row,Binder,% bound [%]
1,NWKCWGVVKWECIWA (disulfide 4-12 (inferred)) [SEQ ID NO: 5],24
2,TWQCSGNQKWSCEWF (disulfide 4-12 (inferred)) [SEQ ID NO: 6],20
3,NWYCTGTKSWECFWK (disulfide 4-12 (inferred)) [SEQ ID NO: 7],11
4,TWNCYGVTEWHCYMI (disulfide 4-12 (inferred)) [SEQ ID NO: 9],7
5,LTVCHPPYYGRCNFV (disulfide 4-12 (inferred)) [SEQ ID NO: 10],9
6,PLVCHPPYSGSCSLH (disulfide 4-12 (inferred)) [SEQ ID NO: 11],9
7,PMICHAPYVGKCNFL (disulfide 4-12 (inferred)) [SEQ ID NO: 12],7
8,PWYCSGDHLDWKCIYQ (disulfide 4-13 (inferred)) [SEQ ID NO: 20],64
9,DWTCVGDHKTWKCNFH (disulfide 4-13 (inferred)) [SEQ ID NO: 21],57
10,DWECHGNEFEWNCLMR (disulfide 4-13 (inferred)) [SEQ ID NO: 22],55
11,AWDCSGNIPTWYCRRL (disulfide 4-13 (inferred)) [SEQ ID NO: 23],44
12,EWLCVGDSLKWYCKHS (disulfide 4-13 (inferred)) [SEQ ID NO: 24],43
13,IWLCTGGAATWNCKFD (disulfide 4-13 (inferred)) [SEQ ID NO: 25],39
14,WRCDGDAHDWHCDWF (disulfide 3-12 (inferred)) [SEQ ID NO: 26],25
15,SWHCFGDNENWMCNLR (disulfide 4-13 (inferred)) [SEQ ID NO: 27],24
16,SWICTGDNIDWNCRFA (disulfide 4-13 (inferred)) [SEQ ID NO: 28],20
17,DWICHGDFDTWKCDLQ (disulfide 4-13 (inferred)) [SEQ ID NO: 29],16
18,GWDCQGTDNIWECVRK (disulfide 4-13 (inferred)) [SEQ ID NO: 30],16
19,GWVCGGDHTTWECHLQ (disulfide 4-13 (inferred)) [SEQ ID NO: 31],15
20,NWVCSGDHADWSCALI (disulfide 4-13 (inferred)) [SEQ ID NO: 32],12
